Measurements taken from patent US8889408B2, “Factor taking part in transcription control” (Sony Corporation, priority 2002, dated 2014).

Tests used:
[1] = system: HDAC; assay: CAT reporter analysis with HDART in the presence of HDAC inhibitors; assay type: cell-based; details: pcDNA3-HDART 1 μg
Method: In this example, however, a given amount of pcDNA3-HDART expression vector (1 μg) (“HDART+” in FIGS. 10) and 100 nM of TSA or […] of sodium butyrate was added to along with a ligand (ATRA or dexamethasone).

[2] = system: retinoic acid receptor; assay: RAR reporter CAT analysis in HepG2 cells; assay type: cell-based
Method: Since it is shown in the above example that HDART is able to interact with Skip, the functional role of HDART on the transcription route ascribed to a nuclear receptor was analyzed. First, the effect of HDART on the transcription regulation by retinoic acid receptor was analyzed. For this purpose, the CAT analysis was made using a RAR (retinoid acid receptor) reporter plasmid incorporating a thymidine kinase minimum promoter (pTREpal-tata) and CAT gene therein downstream of a retinoid response element.
More particularly, pcDNA3-HDART, capable of steadily expressing HDART, and, at the same time, RAR reporter plasmid, were transfected into HepG2 cells by use of Effectene kit (QIAGEN™). It is to be noted that the pcDNA3-HDART expression vector was introduced in different amounts of 0, 0.5 and 1.0 μg, and the amount of DNA in the respective transfections was equalized at 1 μg by adding the appropriate amount of a vacant vector of pcDNA. After the transfection, growth was made in the presence (10^−8 M) or absence of ATRA and the CAT activity was measured. The results of the measurement (FIG. 6) are indicated in terms of values corrected on the basis of the CAT activity obtained after introduction of 1.0 μg of a vacant vector in the absence of ATRA. In addition, the average of the results of three experiments and a standard deviation in terms of an error bar are also shown.
(§1) Next, the influence of the overexpression of N4TPR on the transcription from RAR or a glucocorticoid responsive promoter was checked. It will be noted that this test was made in the same manner as in the reporter analysis set out in Example 4, but using GFP-N4TPR expression vector (0, 0.3 and 0.5 μg).

[3] = system: MM-1-19-P cells; assay: ATRA-induced differentiation of MM-1-19-P rhabdomyosarcoma cells; assay type: cell-based, human
Source text: It is known that ATRA (all-trans retinoic acid) is an important inducer for tumor cell differentiation (20-22). The human rhabdomyosarcoma cell line MM-1-19-P is constituted mainly of small polygonal cells, which when provided with retinoic acid, ultimately differentiate into myotubular cytomegalic cells. In order to clarify the physiological role of HDART in the reaction ascribed to nuclear hormone receptors, the influence of the expression with HDART on the differentiation of MM-1-19-P caused by ATRA was analyzed.
MM-1-19-P cells were plated in a […] Petri dish, followed by co-transfection of the cells with 0.4 μg of pGFP vector and 2 μg of pcDNA3 (vacant vector) or pcDMA3-HDART (HDART expression vector). 24 hours after the transfection, the medium was changed with an ATRA-containing (2 μM) or ATRA-free fresh one. […] All experiments were repeated four times, and the number of cells assessed as positive for GFP was counted. It will be noted that in FIG. 12, the standard microphotographs of green fluorescence of GFP are shown in panels of FIGS. 12A, 12B, 12C and 12D, and the phase differential microphotographs are shown in panels of FIGS. 12E and 12F, respectively. In the figure, 12A indicates ATRA non-treated, vacant vector-introduced cells, 12B indicates ATRA treated, vacant vector-introduced cells, 12C indicates ATRA-non-treated, HDART expression vector-introduced cells, 12D indicates ATRA-treated, HDART expression vector-introduced cells, 12E indicates cells under the same conditions as in 12C above, and 12F indicates cells under the same conditions as in 12D above. In addition, the black arrow in the panel of FIG. 12F indicates undifferentiated GFP positive cells, and white arrow indicates differentiated cells.

[4] = system: glucocorticoid receptor (GR); assay: GR reporter CAT analysis in GR positive Hela cells; assay type: cell-based
Method: Furthermore, the action of HDART on the transcription regulation by glucocorticoid receptor (GR) was analyzed by use of GR reporter plasmid in GR positive Hela cells. The transcription activity of a glucocorticoid response promoter was carried out in the same manner as in the experiment for the retinoic acid receptor except for the use of Hela cells and 10^−8 M of dexamethasone. The results of the measurement are shown in the same manner as shown above.
as §1

[5] = molecular target: T1, Skip (Homo sapiens, UniProt Q13573); assay: Immunoprecipitation: N4TPR inhibition of endogenous HDART-Skip interaction in 293 cells; assay type: binding; parameters: expressed in transfected cells; host or cells: 293 cells; details: GFP-N4TPR expressed versus GFP alone
T1 sequence (Q13573 1-536): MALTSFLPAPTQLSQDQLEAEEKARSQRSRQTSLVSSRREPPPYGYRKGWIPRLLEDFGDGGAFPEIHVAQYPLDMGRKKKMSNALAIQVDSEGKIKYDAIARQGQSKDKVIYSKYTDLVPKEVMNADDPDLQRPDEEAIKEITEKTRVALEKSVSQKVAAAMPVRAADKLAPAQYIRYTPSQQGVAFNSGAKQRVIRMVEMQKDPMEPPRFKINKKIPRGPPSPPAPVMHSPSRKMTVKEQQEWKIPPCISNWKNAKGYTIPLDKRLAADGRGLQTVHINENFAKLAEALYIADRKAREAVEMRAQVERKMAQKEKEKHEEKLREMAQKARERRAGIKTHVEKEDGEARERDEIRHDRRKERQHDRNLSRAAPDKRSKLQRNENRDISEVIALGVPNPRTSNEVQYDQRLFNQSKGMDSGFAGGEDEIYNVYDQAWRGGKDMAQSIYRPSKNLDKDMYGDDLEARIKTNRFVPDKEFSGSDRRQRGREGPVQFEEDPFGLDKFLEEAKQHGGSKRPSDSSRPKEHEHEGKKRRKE
Source text: RAR and TR inhibit the genetic activity in the absence of a ligand in vivo (Baniahmad, A., Kohne, A. C., and Renkawitz, R. (1992) Embo J 11(3), 1015-23) and in vitro (Fondell, J. D., Roy, A. L., and Roeder, R. G. (1993) Genes Dev 7(7B), 1400-10). From this, this is called active repression. Skip interacts with NHR independently of ligand (MacDonald, P. N., Baudino, T. A., Toumaru, H., Dowd, D. R., and Zhang, C. (2001) Steroids 66 (3-5), 171-6). […] In order to clarify these possibilities, a dominant negative line of HDART is overexpressed to check the influence on the transcription ascribed to RAR. As shown in Example 2, the four TRPs (N4TPR) at the N terminus of HDART are in the Skip binding region, so that it is hypothesized that the expression of this region inhibits the interaction between the endogenous HDART and Skip, it is inhibiting the natural function of HDART and functioning as a dominant negative. In this sense, the N4TPR was used as a candidate for dominant negative in this example.
Flag-Skip and N4TPR tagged with GFP or GFP were transfected into 293 cells. […] The expression of Flag-Skip was detected using an anti-Flag antibody, the expression of GFP and GFP-N4TPR detected using an anti-GFP antibody, and the expression of the internal HDART detected using an anti-HDART antibody, respectively (FIG. 11A).

[6] = molecular target: T1, Skip; assay: Yeast two-hybrid analysis (β-galactosidase) of HDART-Skip interaction; assay type: binding; parameters: expressed in transfected cells; host or cells: Saccharomyces cerevisiae Y190; details: Gal4DBD-HDART and deletion mutants with Gal4AD-Skip; β-galactosidase activity
Source text: In order to isolate a protein that binds to this HDART, a yeast two-hybrid system was used. More particularly, a yeast MATCHMAKER two-hybrid analysis kit (Clontech) was used for the isolation. The ORF full length of HDART was inserted so that it and the Gal4 DNA binding domain reading frame were aligned in the same frame with each other within pAS-1 vector (Clontech). This bait plasmid was transformed into Saccharomyces cerevisiae Y190 along with pACT2 prey plasmid whose HeLa cDNA (Clontech) had been sub-cloned. The screening for clones into which both plasmids were introduced was carried out according to the kit protocol. […]
For mapping of regions on the Skip taking part in the interaction with HDART, a series of deletion mutations where various regions on Skip (N-terminus region (codon 1-220), nuclear hormone binding region (NHR binding, codon 221-388), and tran-activation region (TA, codon 438-536) were deleted, and the interaction between HDART and mutated Skip was analyzed according to the yeast two-hybrid analysis using Gal4DBD-HDART as set forth in Example 2. The results of the analysis are shown in FIG. 5A. The sign “+” indicated at the right of FIG. 5A indicates the observation of the interaction by the filter lift analysis of β-galactosidase activity, and the number of “+” indicates the relative intensity of the interaction. […]

[7] = absence of a ligand, GFP-N4TPR expression vector 0.5 μg (highest expression level)
[8] = absence of ligand, GFP-N4TPR expression vector 0.3 μg

CC(/C=C/C(=O)NO)=C\[C@@H](C)C(=O)c1ccc(N(C)C)cc1 [triconstatin A, tricostatin A]
expression repression by HDART ([1]; 100 nM TSA added with ligand (ATRA or dexamethasone)): fully neutralized

CC1=C(/C=C/C(C)=C/C=C/C(C)=C/C(=O)O)C(C)(C)CCC1 [ATRA, all-trans retinoic acid, reference compound]
CAT activity ([2]; HepG2 cells receiving vacant vector (pcDNA), presence of ATRA 10^−8 M versus absence): increased five-fold | number of GFP positive cells (cytotoxic effect) ([3]; cells treated with the vacant vector and ATRA 2 μM): less than 30% | morphological differentiation into muscle tissue (myotubular cytomegalic cells) ([3]; vacant vector-introduced cells, ATRA 2 μM, 48 hours): differentiated into muscle tissue

CCCC(=O)[O-].[Na+] [sodium butyrate]
expression repression by HDART ([1]; 1 mA of sodium butyrate added with ligand (ATRA or dexamethasone)): The same results were also observed

B1: N4TPR: dominant negative peptide of HDART: four TPRs at the N terminus, amino acids 1 to 179 of SEQ ID NO: 2 (protein, listed as Homo sapiens)
chain: MVVMARLSRPERPDLVFEEEDLPYEEEIMRNQFSVKCWLRYIEFKQGAPKPRLNQLYERALKLLPCSYKLWYRYLKARRAQVKHRCVTDPAYEDVNNCHERAFVFMHKMPRLWLDYCQFLMDQGRVTHTRRTFDRALRALPITQHSRIWPLYLRFLRSHPLPETAVRGYRRFLKLSPES
transcription activation capability for the retinoic acid receptor compared with ATRA ([2]; N4TPR versus ATRA): higher transcription activation capability than ATRA | transcription activity from the RAR responsive promoter [2, 7]: about 20 times | transcription activity from the RAR responsive promoter [2, 8]: increased up to the amount (gray column) of transcription activity induced by the presence of ligand | transcription activity from the glucocorticoid responsive promoter [4, 7]: about 20 times | transcription activity from the glucocorticoid responsive promoter [4, 8]: increased up to the amount (gray column) of transcription activity induced by the presence of ligand | amount of HDART co-precipitated with Skip [5]: more reduced amount | interaction with Skip [6]: ensures the interaction with Skip to a full extent
